Results on four substances are retold here after paper PMC9335266.

Bounds are passed on as bounds.

The target in the assay is TRIM7^B30.2 (PRY-SPRY domain of human TRIM7, residues 338-511) (human) (UniProt Q9C029). The assay can be described thus: ITC. (Isothermal titration calorimetry measures the heat released or taken up as one component is titrated into another.)
With “2C peptide with F−2 replaced by a positively charged residue (R−2)”, the fold decrease in binding affinity against the 2C peptide is > 50 fold.
In turn, 2C peptide with F−2 substituted by Ala returned a fold decrease in binding affinity against the 2C peptide of 8 fold.
Turning to “2C peptide with F−2 replaced by polar serine (S−2)”, the fold decrease in binding affinity against the 2C peptide was > 50 fold.
“2C peptide with F−2 substituted by an acidic residue (D−2)”: the fold decrease in binding affinity against the 2C peptide was 8 to 15 fold.
